Reference: patent US20250270318A1 (AB THERAPEUTICS, published 2025)

T1: TIGIT (on TIGIT-transfected Jurkat cells) (UniProt Q495A1 22-244, limits assumed)
T1 construct: whole, on cells; also called Jurkat TIGIT; cell-associated TIGIT
T1 sequence (looked up): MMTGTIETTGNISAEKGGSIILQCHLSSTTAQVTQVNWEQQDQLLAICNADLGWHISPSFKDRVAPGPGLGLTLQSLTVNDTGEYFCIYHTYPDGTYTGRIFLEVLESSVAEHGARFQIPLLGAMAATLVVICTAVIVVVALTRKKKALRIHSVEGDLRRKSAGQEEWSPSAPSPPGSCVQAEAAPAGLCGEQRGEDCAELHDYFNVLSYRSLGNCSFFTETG

T2: LAG-3 (on LAG-3-transfected Jurkat cells) (UniProt P18627 23-525, limits assumed)
T2 construct: whole, on cells; also called Jurkat LAG-3; cell-associated LAG-3
T2 sequence (looked up): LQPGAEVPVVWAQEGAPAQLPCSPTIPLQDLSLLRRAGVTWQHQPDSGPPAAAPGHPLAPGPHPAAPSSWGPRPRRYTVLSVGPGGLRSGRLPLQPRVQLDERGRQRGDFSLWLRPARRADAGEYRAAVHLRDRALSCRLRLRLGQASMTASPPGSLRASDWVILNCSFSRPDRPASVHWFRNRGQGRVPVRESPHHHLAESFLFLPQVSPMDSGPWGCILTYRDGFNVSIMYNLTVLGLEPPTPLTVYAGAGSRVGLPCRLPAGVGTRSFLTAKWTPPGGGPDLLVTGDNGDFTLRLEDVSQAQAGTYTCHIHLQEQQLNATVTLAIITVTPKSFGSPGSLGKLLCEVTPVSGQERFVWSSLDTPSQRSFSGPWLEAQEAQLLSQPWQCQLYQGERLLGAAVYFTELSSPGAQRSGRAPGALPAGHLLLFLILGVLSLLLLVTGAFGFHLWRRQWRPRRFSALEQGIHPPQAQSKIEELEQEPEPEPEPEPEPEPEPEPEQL


Tests used:
[1] = target: T3, PD-L1 (endogenous, on RKO colon cancer cells) (human, UniProt Q9NZQ7 19-290); test: flow cytometry, antibody binding to PDL1+ RKO cells (MFI)
T3 construct: whole, on cells; also called cell-associated PD-L1; CD274
T3 sequence (Q9NZQ7 19-290): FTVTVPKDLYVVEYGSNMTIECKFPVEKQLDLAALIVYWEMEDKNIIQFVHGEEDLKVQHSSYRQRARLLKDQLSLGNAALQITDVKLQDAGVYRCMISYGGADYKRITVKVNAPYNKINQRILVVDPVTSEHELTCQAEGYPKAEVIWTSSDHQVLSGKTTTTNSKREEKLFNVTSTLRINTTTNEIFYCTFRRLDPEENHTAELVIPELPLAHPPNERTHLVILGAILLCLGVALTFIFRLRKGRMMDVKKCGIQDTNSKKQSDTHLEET
Protocol: (§1) 10⁵ cells (RKO, Jurkat TIGIT, and Jurkat LAG-3 for testing antibody binding to PD-L1, TIGIT, and LAG-3, respectively) per well were distributed in 0.1 ml medium to 96-well V-bottom plates. Supernatants were discarded after spinning down cells at 300 g, 5 min at room temperature. Cells were resuspended in […] of a serial dilution of antibodies and incubated for 1 h at room temperature. After incubation, cells were washed by adding 0.15 ml cell staining buffer (PBS containing 1% FBS and 0.1% NaN3) and centrifugation at 300 g, 5 min at room temperature. Supernatants were discarded and cells were washed one more time with 0.15 ml of staining buffer. Cells were subsequently resuspended in […] of secondary antibody (Alexa Fluor 647-conjugated AffiniPure Goat Anti-Human IgG, Fcγ Fragment Specific. Used at 1:500) and incubated at RT for 30 min. Cells were spun down after 0.15 ml cell staining buffer was added, resuspended in 0.12 ml of cell staining buffer, and analyzed by flow cytometry on a NovoCyte flow cytometer (Agilent).

[2] = target: T1, TIGIT (on TIGIT-transfected Jurkat …); test: competition flow cytometry: blocking of biotinylated CD155 binding to Jurkat TIGIT cells
Protocol: (§2) 10⁵ cells (RKO for PD-1/PD-L1 blocking, Raji for MHC-II/LAG-3 blocking, and Jurkat TIGIT for CD155/TIGIT blocking) were distributed per well in 0.1 ml medium to 96-well V-bottom plate in duplicate. Supernatants were discarded after spinning down cells at 300 g, 5 min at room temperature. […] After incubation, cells were washed by adding 0.15 ml cell staining buffer (PBS containing 1% FBS and 0.1% NaN3) and centrifugation at 300 g, 5 min at room temperature. Supernatants were discarded and cells were washed one more time with 0.15 ml of staining buffer. Cells were subsequently resuspended in […] of 1:500 Streptavidin-PE and incubated at RT for 30 min. Cells were spun down after 0.15 ml cell staining buffer was added, resuspended in 0.12 ml of cell staining buffer, and analyzed by flow cytometry on a NovoCyte flow cytometer (Agilent).

[3] = target: T1, TIGIT (on TIGIT-transfected Jurkat …); test: flow cytometry, antibody binding to Jurkat TIGIT cells (MFI), fluorescent anti-human IgG Fc secondary
Protocol: as §1

[4] = target: T1, TIGIT (on TIGIT-transfected Jurkat …); test: flow cytometry blocking assay: biotinylated CD155 binding to Jurkat TIGIT cells (MFI), streptavidin detection
Protocol: as §2

[5] = target: T2, LAG-3 (on LAG-3-transfected Jurkat …); test: flow cytometry, antibody binding to Jurkat LAG-3 cells (MFI)
Protocol: as §1

| Binder | binding result [1] | IC50 [2] | EC50 [3] | IC50 [4] | binding result [5] |
| --- | --- | --- | --- | --- | --- |
| parental anti-TIGIT antibody (antibody, human IgG1, V domains shown, also called αTIGIT; ABT's parental anti-TIGIT antibody) VH: EVQLVESGGGLVQPGGSLRLSCAASSRTFSRYAMGWFRRAPGKEREFVASISWSGGGLEYAESVKGRFTISRDGSKNTVYLQMNSLAAEDTAVYYCAADPWGSLVNGAVRYEYWGQGTLVTVSS | no binding (tested: 100 nM) | ~2.5 nM | 5.64 nM | 2.65 nM | – |
| tiragolumab (antibody, V domains shown) VH: EVQLQQSGPGLVKPSQTLSLTCAISGDSVSSNSAAWNWIRQSPSRGLEWLGKTYYRFKWYSDYAVSVKGRITINPDTSKNQFSLQLNSVTPEDTAVFYCTRESTTYDLLAGPFDYWGQGTLVTVSS VL: not shown | – | ~0.3 nM | 0.31 nM | 0.29 nM | – |
| PD-L1/TIGIT BsAb (bispecific antibody, V domains shown, also called PD-L1/TIGIT bispecific antibody; TIGIT/PD-L1 bispecific antibody; not shown: linker peptide) V domain 1: EVQLVESGGGLVQPGGSLRLSCAASSRTFSRYAMGWFRRAPGKEREFVASISWSGGGLEYAESVKGRFTISRDGSKNTVYLQMNSLAAEDTAVYYCAADPWGSLVNGAVRYEYWGQGTLVTVSS V domain 2: not shown | – | ~0.3 nM | 1.59 nM | 0.37 nM | no binding (tested: 100 nM) |
